Data on five molecules can be found in US20210079444A1, “LABEL FREE DETECTION OF PROTEASE ACTIVITY” (VIB VZW, priority 2017, published 2021).

Square brackets hold non-standard residues; d marks the D form. Ends that are not written are not given here. Bpa = N[C@@H](Cc1ccc(C(=O)c2ccccc2)cc1)C(=O)O; Phe(4-CN) = N#Cc1ccc(C[C@H](N)C(=O)O)cc1

Test [1] has as its target T1, trypsin (Sus scrofa, UniProt P00761).
T1 construct: purchased Promega V5111
As to the kind of experiment: Bulk (in-solution) trypsin digestion of peptide substrate, RP-HPLC separation and MALDI-TOF mass spectrometry, SERS of separated fractions. The class given is biochemical. The note with it: for change of 1003 cm^-1 phenylalanine SERS peak in cleaved fraction after trypsin cleavage: cleaved vs uncleaved fractions labelled on gold nanodome chips; for extent of substrate digestion by trypsin (RP-HPLC/MALDI-TOF): peptide 100 μg/ml, trypsin 3.3 μg/ml (1/30 w/w), 50 mM ammonium-bicarbonate pH 7.8, 37° C. As for the experimental part:
As a first step, the activity of the protease on the substrate in solution was monitored. RP-HPLC was used to separate the substrate from the digestion products, which are subsequently labelled on a nanodome platform. From the difference spectrum, the characteristic peaks of the cleaved-off and remaining fractions are derived. FIG. 4(a2-a4) depicts the results of this experiment for trypsin and its CALNNYGGGGVRGNF (100 μg/ml) (SEQ ID NO:3) substrate. The peptide was incubated with trypsin (3.3 μg/ml) at a 1/30 (w/w) ratio in a 50 mM ammonium-bicarbonate (pH 7.8) buffer in water, and separated with RP-HPLC (FIG. 4(a2)) after 0, 30 and 90 minutes of incubation. The RP-HPLC-separated peptides and their fragments were identified using MALDI-TOF mass spectrometry. […] The dimer formation is a consequence of the oxidation of the cysteine thiol groups upon which a disulphide bond is formed between two peptides. […] Subsequently, nanodome chips were labeled with cleaved and uncleaved fractions. […] Furthermore, the peaks at 618 cm^−1, 1030 cm^−1 and 1207 cm^−1 show a partial decrease, although their signal to noise ratio is low. All these peaks correspond to those attributed to phenylalanine (Table 1). From this experiment, it is concluded that the ratio between the 1003 cm^−1 peak and the 829-860 cm^−1 peaks (I1003/I829-860) is a correct metric for IF/IY, the cleavage of the substrate by trypsin.
The activity of trypsin on the peptides with unnatural aromatic amino acids was verified using HPLC/mass spectrometry, showing complete digestion of 100 μg/ml peptide after 1 hour incubation with a 4 μg/ml Trypsin concentration. Subsequently, cleaved and uncleaved fractions were labelled on a nanodome SERS substrate.

For test [2], the target named is endoproteinase Glu-C (Staphylococcus aureus, UniProt P0C1U8).
Protocol: Peptides were first dissolved to 100 μg/μl in DMF and further diluted to 100 μg/ml in either a 10% acetonitrile/water mixture for labelling or a 50 mM ammonium bicarbonate buffer (pH 7.8) for bulk digestion experiments. Prior to labelling the chips with the peptides, they were cleaved into pieces of a few mm^2 and cleaned by sonication in acetone, rinsed with isopropyl alcohol and water and dried with under a stream of nitrogen. Next, remaining organic contaminants were removed in an 02 plasma, which also renders the surface hydrophilic (120 s, PVA-TEPLA GIGAbatch 310 M, 6000 sccm O2, 600 W, 750 mTorr). Immediately afterwards, the chips were immersed in separate wells of a polypropylene 96-well plate, using 100 μl of a 100 μg/ml peptide solution in 10% acetonitrile in water. After overnight incubation, the chips were rinsed excessively with deionized water. […]
After incubation for a specific time at 37° C., 750 μl of a solution with 100 μg/ml substrate and 3.3 μg/ml trypsin or endoproteinase Glu-C in 50-100 mM ammonium bicarbonate was injected in a C-18 reversed phase high-performance liquid chromatography column (Macherey-Nagel) and eluted by a water/acetonitrile gradient (Akta Purifier, GE). The molecular weight of separated fractions was determined using matrix-assisted laser desorption/ionisation time-of-flight mass spectrometry (Bruker MALDI-TOF).
The target in test [3] is T1, trypsin. Nature of the test: SERS-monitored trypsin hydrolysis of gold-nanodome bound peptides (with and without ovomucoid inhibitor). The class given is biochemical. As to conditions: for decrease of SERS intensity ratio I1003/I829-860: gold-nanodome bound peptide. The protocol: In a third experimental setup, three CALNNYGGGGVRGNF (SEQ ID NO:3) labelled nanodome chips were incubated in a buffer without trypsin, with trypsin and with trypsin plus an ovomucoid inhibitor for 45 minutes (FIG. 6). […] On the chip with trypsin only, the surface bound peptides are cleaved, resulting in a decrease of 11003/1829-860 by 40-48%. […] Two possible origins are considered for the remaining signal at 1003 cm^−1. […] More likely, the remaining signal originates from peptides that are not accessible to the protease due to steric hindrance. This can be a result of a too dense monolayer of peptides (refs 11, 23) or inaccessible parts of the nanodome geometry. Especially in the latter case, the inaccessible peptides are probably located in the nanodome gaps and will contribute disproportionally strong to the SERS signal.
Spectra were acquired on a WITec Alpha 300 R+ confocal Raman microscope equipped with spectrometer using a 600 lpmm grating, a −70° C. cooled CCD camera (Andor iDus 401 BR-DD) and a 785 nm diode laser (Toptica, XTRA II). Raman spectra of the peptide powders were acquired using a Zeiss 100×/0.9 EC Epiplan NEOFLUAR; ∞/0 objective and a laser power of 100 mW, measured before the objective. SERS spectra were acquired through a Zeiss 63×/1.0 W-Plan Apochromat ∞/0 objective with 2 mW laser power. For real-time monitoring of enzymatic activity, the chip was placed in a metal petri dish filled with 1 ml 50 mM ammonium bicarbonate buffer (pH 7.8) inside a stage-top incubator at 37° C. (Okolab). Because of signal degradation upon laser illumination, each trace is the median spectrum of a spatially distributed map of 10×10 pixels in a 20×20 μm area with an integration time of 1 s on each point. In the real-time assay, every next trace was mapped on a different location on the SERS platform. […]
(§1) Starting from the 10×10 individual spectra, WITec Project Four® was used for removing cosmic rays. […] 11003 and 1829-860 were calculated by integrating the peaks at their respective positions and subtracting the background with a linear fit for the individual spectra. […]

The target in test [4] is T1, trypsin. Nature of the test: Trypsin hydrolysis of unbound peptide observed through SERS spectra of a non-separated mixture. The class given is biochemical. The note with it: peptide 100 μg/ml, trypsin 2 μg/ml, 2 hours of incubation, no RP-HPLC separation. The source says: Apart from a thiol-gold interaction, N-terminal primary amines can also lead to a charge-based adsorption on metal surfaces (ref 39). This effect may be additive in the case of cysteine, but could lead to the adsorption of unwanted amino acids on the gold surface. In a second set of in-solution experiments, a similar trypsin was run—CALNNYGGGGVRGNF (SEQ ID NO:3) assay without separating the fractions by RP-HPLC (FIG. 5). One nanodome chip was labelled with a reference solution of the peptide (100 μg/ml), another with a solution of peptide (100 μg/ml) and trypsin (2 μg/ml) after 2 hours of incubation. […] Furthermore, the SERS and difference SERS-spectra shown in FIG. 5 confirm the findings of the RP-HPLC experiment in FIG. 4(a).
Spectra were acquired on a WITec Alpha 300 R+ confocal Raman microscope equipped with spectrometer using a 600 lpmm grating, a −70° C. cooled CCD camera (Andor iDus 401 BR-DD) and a 785 nm diode laser (Toptica, XTRA II). Raman spectra of the peptide powders were acquired using a Zeiss 100×/0.9 EC Epiplan NEOFLUAR; ∞/0 objective and a laser power of 100 mW, measured before the objective. SERS spectra were acquired through a Zeiss 63×/1.0 W-Plan Apochromat ∞/0 objective with 2 mW laser power. […]

Test [5] addresses T1, trypsin. As to the kind of experiment: Real-time SERS observation of trypsin activity on gold-nanodome bound peptide. The class given is biochemical. The protocol:
Finally, CALNNYGGGGVRGNF (SEQ ID NO:3) labelled chips were incubated with trypsin under the Raman microscope for a real-time acquisition of SERS spectra. […] A new spectrum was acquired every 2-3 minutes with an integration time of 100 seconds. A relative decrease of I1003 versus the peaks at 829, 860, 948, 1248, 1330, 1603 and 1677 cm^−1 is visible within the first minutes after adding 0.2 μg/ml trypsin (8.6 nM) to a total volume of 1 ml (8.6 pmol), in agreement with Table 1 and the earlier experiments described in this work. SERS spectra after 2 minutes and 30 minutes of trypsin incubation show a further reduction of I1003 and I1206 with increasing incubation time (FIG. 7 (b)). […]
Spectra were acquired on a WITec Alpha 300 R+ confocal Raman microscope equipped with spectrometer using a 600 lpmm grating, a −70° C. cooled CCD camera (Andor iDus 401 BR-DD) and a 785 nm diode laser (Toptica, XTRA II). Raman spectra of the peptide powders were acquired using a Zeiss 100×/0.9 EC Epiplan NEOFLUAR; ∞/0 objective and a laser power of 100 mW, measured before the objective. […]
as §1

T1 sequence (P00761 9-231): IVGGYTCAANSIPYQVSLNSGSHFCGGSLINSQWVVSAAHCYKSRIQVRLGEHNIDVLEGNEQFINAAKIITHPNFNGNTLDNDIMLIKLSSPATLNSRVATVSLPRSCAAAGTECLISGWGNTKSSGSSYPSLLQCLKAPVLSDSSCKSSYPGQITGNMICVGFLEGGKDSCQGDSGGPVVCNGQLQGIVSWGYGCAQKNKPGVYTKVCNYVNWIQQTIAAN
Chain of endoproteinase Glu-C (P0C1U8 69-336): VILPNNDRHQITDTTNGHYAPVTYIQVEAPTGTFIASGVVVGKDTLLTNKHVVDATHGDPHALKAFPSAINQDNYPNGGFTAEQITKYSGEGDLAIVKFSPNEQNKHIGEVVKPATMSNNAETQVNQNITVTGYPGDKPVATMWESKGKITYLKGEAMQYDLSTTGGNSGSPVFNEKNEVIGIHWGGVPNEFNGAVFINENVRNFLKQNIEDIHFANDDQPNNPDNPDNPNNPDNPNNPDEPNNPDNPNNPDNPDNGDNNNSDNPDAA

As for “CALNN(bzF)GGGGVRGNF (CALNN[Bpa]GGGGVRGNF) [trypsin substrate analogue, tyrosine replaced by benzoyl-phenylalanine]”, the “change of 1003 cm^-1 phenylalanine SERS peak in cleaved fraction after trypsin cleavage” value in test [1] is “decrease”.

Turning to “CALNN(cnF)GGGGVRGNF (CALNN[Phe(4-CN)]GGGGVRGNF) [trypsin substrate analogue, tyrosine replaced by 4-cyano-phenylalanine]”, the “change of 1003 cm^-1 phenylalanine SERS peak in cleaved fraction after trypsin cleavage” value in test [1] was “complete disappearance”.

Take CALNNYGGGGNNESWH: the “conversion of substrate to products by endoproteinase Glu-C (RP-HPLC/mass spectrometry)” value in test [2] (4 hours of incubation, peptide 100 μg/ml, endoproteinase Glu-C 3.3 μg/ml) was “almost full conversion”. Moreover, the “change of 754 cm^-1 and 1356 cm^-1 (tryptophan) SERS peaks upon endoproteinase Glu-C cleavage” value in test [2] (cleaved peptide vs uncleaved dimer bound to nanodome chips) is on record as “disappearance”.

“CALNNYGGGGVRGNF (trypsin substrate) [trypsin substrate peptide with Tyr and Phe SERS reporters]”: the “decrease of SERS intensity ratio I1003/I829-860” value in test [3] (45 minutes incubation) is recorded as 40-48%; in test [3] (trypsin), at most 53%. Also, in test [4], the “extent of digestion by trypsin, from lack of 1003 cm^-1 phenylalanine SERS peak” value was “fully digested”. For the same molecule, the “time course of digestion of gold-bound peptide in real-time monitoring” value in test [5] (8.6 nM trypsin concentration) is on record as “immediate digestion within the first two minutes”. For the same molecule, in test [5] (trypsin concentrations ranging from 1 to 0.2 μg/ml, 37° C., spectrum every 2-3 minutes), the “cleavage of accessible surface-bound substrate in real time (I1003/I829-860 versus time)” value is on record as “most of the accessible substrate was cleaved within the time-span of the first measurement”. Further, the figures for the “extent of substrate digestion by trypsin (RP-HPLC/MALDI-TOF)” value in test [1] (30 minutes incubation) and in test [1] (90 minutes incubation) were “almost fully digested” and “fully cleaved”, respectively. In test [1], the “change of 1003 cm^-1 phenylalanine SERS peak in cleaved fraction after trypsin cleavage” value was “full disappearance”.

B1: ovomucoid inhibitor: Ovomucoid (Type II-0) Trypsin inhibitor from chicken egg white (Sigma, T9253) (protein, UniProt P01005 25-210, looked up)
Ovomucoid: AEVDCSRFPNATDKEGKDVLVCNKDLRPICGTDGVTYTNDCLLCAYSIEFGTNISKEHDGECKETVPMNCSSYANTTSEDGKVMVLCNRAFNPVCGTDGVTYDNECLLCAHKVEQGASVDKRHDGGCRKELAAVSVDCSEYPKPDCTAEDRPLCGSDNKTYGNKCNFCNAVVESNGTLTLSHFGKC
B1: in test [3] (trypsin plus ovomucoid inhibitor, 45 minutes, inhibitor 100 μg/ml, substrate CALNNYGGGGVRGNF on nanodome chip), the “inhibition of tryptic cleavage of surface-bound peptide (SERS spectrum vs reference chip)” value is “full blockade of tryptic cleavage”.
